Results published in patent publication US12042530B2, “Target peptides for immunotherapy and diagnostics” (University of Virginia Patent Foundation, priority 2012, dated 2024).
Where two headings read alike, the source gives them in different places. Non-standard residues stand in square brackets, D forms with d. No end group written: not given here. pS = N[C@@H](COP(=O)(O)O)C(=O)O

How the values were obtained:
[1] = molecular target: HLA A*0201 (Homo sapiens, UniProt P04439, D140Y/D185E/D98H/E176V/E277Q/G131W/G231S/I119V/I121R/I166T/I218V/L300P/L318F/N151K/N90K/P208A/P217A/Q86G/Q94H/R138H/R169H/T345S); experiment: Binding to HLA A*0201 (statement)
[2] = system: PBMCs; experiment: Memory T cell response, IFNγ ELISpot, healthy A2 positive donors; type: cell-based, human
[3] = system: cancer cell lines; experiment: Recognition of naturally processed phosphopeptides on cancer cell lines by phosphopeptide-specific CTL (murine IFNγ); type: cell-based, human; conditions: ovarian, melanoma and breast cancer lines versus JY EBV-BLCL control
Protocol: FIGS. 9A and 9B are bar graphs of the recognition of naturally processed and presented phosphorylated peptides on cancer cells by the phosphopeptide-specific CTL. Phosphopeptide-specific CTL were incubated with the following cancer cell lines or EBV-transformed B lymphoblastoid cell lines (BLCL): COV413.AAD.A4 ovarian carcinoma, DM331.AAD.A4 and SLM2.AAD.A1 melanomas, MCF7.AAD.A2 and MDAMB231.AAD breast carcinomas, and JY EBV-BLCL. Supernatants were harvested and evaluated for the presence of murine IFNγ (produced by murine CTL lines). […] The designation “pS” denotes a phosphoserine residue. The ordinate indicates murine IFNγ in pg/ml. The abscissa indicates each cell line.

[4] = molecular target: HLA A*0301 (Homo sapiens, UniProt P04439); experiment: Binding to HLA A*0301 (statement)

Substance: RVApSPTSGV (RVA[pS]PTSGV; listed as Homo sapiens) [SEQ ID NO: 418]
- Binding to HLA A*0201 [1]: binds to HLA A*0201
- Binding to HLA A*0201 ([1]; listed as RVA): did not bind to A*0201
- Day 7 ELISpot, donor alpha ([2]; healthy A2 positive donor alpha): ++ (25-99 spots)
- Day 7 ELISpot, donor one ([2]; healthy A2 positive donor one): ++ (25-99 spots)
- Memory T cell response, in words ([2]; healthy donors / patient): None of the HD recognized or responded to it
- Recognition of the endogenous phosphopeptide by specific CTL lines [3]: recognized the phosphopeptide on all the cancer cell lines but not the control cell line
- Binding to / presentation by HLA A*0301 [4]: cannot be presented by the A*0301 molecule
- Binding to / presentation by HLA A*0301 ([4]; listed as RVA): binds to A*0301
